Laboratory results as given in publication PMC9321335, “Palmitic Acid-Conjugated Radiopharmaceutical for Integrin αvβ3-Targeted Radionuclide Therapy” (Pharmaceutics, 2022).

Assays:
[1] = in vivo; parameters: species or system C57BL/6 mice; conditions: C57BL/6, mouse, 37 MBq, total radioactivity
Description: SPECT/CT imaging was performed using a small animal SPECT/CT imaging system (Mediso Inc., Budapest, Hungary). Each mouse bearing MC38 tumors was injected with a radiotracer at a radioactivity of 37 MBq/1 mCi. The mice were imaged at 1, 4, 12, 24, and 72 h after injection of ^177Lu-Palm-3PRGD2 (37 MBq, 2.7 nmol), and the mice in the blocking study were imaged at 1 h p.i. […] Pinhole SPECT images (peak, 56.1, 112.9, and 208.4 keV; 20% width; frame time, 25 s) were acquired, and CT images were subsequently acquired (50 kV; 0.67 mA; rotation, 210°; exposure time, 300 ms). The raw data were reconstructed in a whole-body region. The SPECT and CT images were then fused using Nucline v 2.01 (Mediso Inc., Budapest, Hungary). The maximum intensity projection (MIP) was determined for whole-body imaging from the posterior view.

[2] = in vivo; conditions: C57BL/6, mouse, total radioactivity; for tissue to tissue ratio at 1 h / tissue to tissue ratio at 4 h / tissue to tissue ratio at 12 h / tissue to tissue ratio at 24 h / tissue to tissue ratio at 72 h: Tumor-to-tissue ratio
Description: (§1) Mice bearing MC38 xenografts were randomly divided into 10 groups (n = 4). The mice in five groups were administered 0.74 MBq/20 µCi of ^177Lu-Palm-3PRGD2 and sacrificed at 1, 4, 12, 24, and 72 h p.i. The mice on one group was injected with 0.74 MBq/20 µCi of ^177Lu-Palm-3PRGD2 and 500 μg (242 nmol) 3PRGD2 as a blocking agent and sacrificed at 1 h p.i. […] Tumors and major organs were harvested, weighed and measured for radioactivity using a γ-counter. The organ uptake was calculated as the percentage injected activity per gram (%IA/g). The effective absorbed dose in humans estimated from mouse biodistribution data by using a dedicated software (OLINDA 1.0).

[3] = tested on: MC38 tumor-bearing mice; assay: in vivo; conditions: mouse
Description: as §1

## CCCCCCCCCCCCCCCC(=O)N[C@@H](CCC(=O)NCCCC[C@H](NC(=O)CN1CCN(CC(=O)O)CCN(CC(=O)O)CCN(CC(=O)O)CC1)C(=O)NCCOCCOCCOCCOCCC(=O)N[C@@H](CCC(=O)NCCOCCOCCOCCOCCC(=O)NCCCC[C@@H]1NC(=O)[C@@H](Cc2ccccc2)NC(=O)[C@H](CC(=O)O)NC(=O)CNC(=O)[C@H](CCCNC(=N)N)NC1=O)C(=O)NCCOCCOCCOCCOCCC(=O)NCCCC[C@@H]1NC(=O)[C@@H](Cc2ccccc2)NC(=O)[C@H](CC(=O)O)NC(=O)CNC(=O)[C@H](CCCNC(=N)N)NC1=O)C(=O)O [^177Lu-Palm-3PRGD2, [^177Lu]Lu-DOTA-Palm-3PRGD2, metal not drawn]
[1]
  tissue uptake per volume at 1 h: 15 ± 0.13 %ID/mL
[2]; 0.74 MBq, Blood uptake
  tissue uptake at 1 h: 9.73 %ID/g
  tissue uptake at 4 h: 4.11 %ID/g
  tissue uptake at 12 h: 0.58 %ID/g
  tissue uptake at 24 h: 0.24 %ID/g
  tissue uptake at 72 h: 0.21 %ID/g
[2]; 0.74 MBq, Bone uptake
  tissue uptake at 1 h: 3.39 %ID/g
  tissue uptake at 4 h: 4.55 %ID/g
  tissue uptake at 12 h: 3.05 %ID/g
  tissue uptake at 24 h: 3.13 %ID/g
  tissue uptake at 72 h: 1.97 %ID/g
[2]; 0.74 MBq, Brain uptake
  tissue uptake at 1 h: 0.52 %ID/g
  tissue uptake at 4 h: 0.55 %ID/g
  tissue uptake at 12 h: 0.43 %ID/g
  tissue uptake at 24 h: 0.4 %ID/g
  tissue uptake at 72 h: 0.29 %ID/g
[2]; 0.74 MBq, Heart uptake
  tissue uptake at 1 h: 5.59 %ID/g
  tissue uptake at 4 h: 4.93 %ID/g
  tissue uptake at 12 h: 3.2 %ID/g
  tissue uptake at 24 h: 2.7 %ID/g
  tissue uptake at 72 h: 1.53 %ID/g
[2]; 0.74 MBq, Intestinal uptake
  tissue uptake at 1 h: 20.6 ± 1.97 %ID/g
  tissue uptake at 72 h: 12.8 ± 1.06 %ID/g
[2]; 0.74 MBq, Intestine uptake
  tissue uptake at 4 h: 17.6 %ID/g
  tissue uptake at 12 h: 21.1 %ID/g
  tissue uptake at 24 h: 17.4 %ID/g
[2]; 0.74 MBq, Kidney uptake
  tissue uptake at 1 h: 17.6 %ID/g
  tissue uptake at 4 h: 20.1 ± 0.6 %ID/g
  tissue uptake at 12 h: 19.3 %ID/g
  tissue uptake at 24 h: 17 %ID/g
  tissue uptake at 72 h: 10.6 ± 1.11 %ID/g
[2]; 0.74 MBq, Liver uptake
  tissue uptake at 1 h: 13.7 %ID/g
  tissue uptake at 4 h: 22.4 ± 2.55 %ID/g
  tissue uptake at 12 h: 22.1 %ID/g
  tissue uptake at 24 h: 13.7 %ID/g
  tissue uptake at 72 h: 6.73 ± 1.18 %ID/g
[2]; 0.74 MBq, Lung uptake
  tissue uptake at 1 h: 7.79 %ID/g
  tissue uptake at 4 h: 7.85 %ID/g
  tissue uptake at 12 h: 5.2 %ID/g
  tissue uptake at 24 h: 3.53 %ID/g
  tissue uptake at 72 h: 1.55 %ID/g
[2]; 0.74 MBq, Muscle uptake
  tissue uptake at 1 h: 1.96 %ID/g
  tissue uptake at 4 h: 1.7 %ID/g
  tissue uptake at 12 h: 1.24 %ID/g
  tissue uptake at 24 h: 0.96 %ID/g
  tissue uptake at 72 h: 0.7 %ID/g
[2]; 0.74 MBq, Spleen uptake
  tissue uptake at 1 h: 7.35 %ID/g
  tissue uptake at 4 h: 12.4 %ID/g
  tissue uptake at 12 h: 18.4 %ID/g
  tissue uptake at 24 h: 14.9 %ID/g
  tissue uptake at 72 h: 8.38 %ID/g
[2]; 0.74 MBq, Stomach uptake
  tissue uptake at 1 h: 5.73 %ID/g
  tissue uptake at 4 h: 7.22 %ID/g
  tissue uptake at 12 h: 6.07 %ID/g
  tissue uptake at 24 h: 3.7 %ID/g
  tissue uptake at 72 h: 1.38 %ID/g
[2]; 0.74 MBq, Tumor uptake
  tissue uptake at 1 h: 14.4 ± 2.53 %ID/g
  tissue uptake at 4 h: 26.3 ± 6.34 %ID/g
  tissue uptake at 12 h: 22.9 ± 4.2 %ID/g
  tissue uptake at 24 h: 17.2 ± 3.3 %ID/g
  tissue uptake at 72 h: 5.83 ± 1.27 %ID/g
[2]; 0.74 MBq, Blood
  tissue to tissue ratio at 1 h: 1.47
  tissue to tissue ratio at 4 h: 7.28
  tissue to tissue ratio at 12 h: 44.9
  tissue to tissue ratio at 24 h: 73.2
  tissue to tissue ratio at 72 h: 28.2
[2]; 0.74 MBq, Bone
  tissue to tissue ratio at 1 h: 4.3
  tissue to tissue ratio at 4 h: 6.66
  tissue to tissue ratio at 12 h: 7.14
  tissue to tissue ratio at 24 h: 5.61
  tissue to tissue ratio at 72 h: 2.96
[2]; 0.74 MBq, Brain
  tissue to tissue ratio at 1 h: 27.9
  tissue to tissue ratio at 4 h: 55.3
  tissue to tissue ratio at 12 h: 52.5
  tissue to tissue ratio at 24 h: 42.5
  tissue to tissue ratio at 72 h: 19.9
[2]; 0.74 MBq, Heart
  tissue to tissue ratio at 1 h: 2.59
  tissue to tissue ratio at 4 h: 6.12
  tissue to tissue ratio at 12 h: 7.11
  tissue to tissue ratio at 24 h: 6.41
  tissue to tissue ratio at 72 h: 3.86
[2]; 0.74 MBq, Intestine
  tissue to tissue ratio at 1 h: 0.77
  tissue to tissue ratio at 4 h: 1.62
  tissue to tissue ratio at 12 h: 1.06
  tissue to tissue ratio at 24 h: 1
  tissue to tissue ratio at 72 h: 0.45
[2]; 0.74 MBq, Kidney
  tissue to tissue ratio at 1 h: 0.82
  tissue to tissue ratio at 4 h: 1.42
  tissue to tissue ratio at 12 h: 1.2
  tissue to tissue ratio at 24 h: 1.01
  tissue to tissue ratio at 72 h: 0.56
[2]; 0.74 MBq, Liver
  tissue to tissue ratio at 1 h: 1.06
  tissue to tissue ratio at 4 h: 1.02
  tissue to tissue ratio at 12 h: 1.05
  tissue to tissue ratio at 24 h: 1.3
  tissue to tissue ratio at 72 h: 0.89
[2]; 0.74 MBq, Lung
  tissue to tissue ratio at 1 h: 1.87
  tissue to tissue ratio at 4 h: 3.98
  tissue to tissue ratio at 12 h: 3.86
  tissue to tissue ratio at 24 h: 4.89
  tissue to tissue ratio at 72 h: 3.78
[2]; 0.74 MBq, Muscle
  tissue to tissue ratio at 1 h: 7.33
  tissue to tissue ratio at 4 h: 17.5
  tissue to tissue ratio at 12 h: 18
  tissue to tissue ratio at 24 h: 17.9
  tissue to tissue ratio at 72 h: 8.33
[2]; 0.74 MBq, Spleen
  tissue to tissue ratio at 1 h: 2.02
  tissue to tissue ratio at 4 h: 2.56
  tissue to tissue ratio at 12 h: 1.4
  tissue to tissue ratio at 24 h: 1.35
  tissue to tissue ratio at 72 h: 0.7
[2]; 0.74 MBq, Stomach
  tissue to tissue ratio at 1 h: 2.57
  tissue to tissue ratio at 4 h: 4.06
  tissue to tissue ratio at 12 h: 3.84
  tissue to tissue ratio at 24 h: 4.74
  tissue to tissue ratio at 72 h: 4.25
[2]; Blood
  tissue to tissue ratio at 1 h: 0.25
[2]; Bone
  tissue to tissue ratio at 1 h: 2.51
[2]; Brain
  tissue to tissue ratio at 1 h: 14.8
[2]; Heart
  tissue to tissue ratio at 1 h: 1.32
[2]; Intestine
  tissue to tissue ratio at 1 h: 0.96
[2]; Kidney
  tissue to tissue ratio at 1 h: 0.69
[2]; Liver
  tissue to tissue ratio at 1 h: 1.19
[2]; Lung
  tissue to tissue ratio at 1 h: 0.71
[2]; Muscle
  tissue to tissue ratio at 1 h: 3.53
[2]; Spleen
  tissue to tissue ratio at 1 h: 1.61
[2]; Stomach
  tissue to tissue ratio at 1 h: 1.64
[3]
  AUC0h→72h in MC38 tumor: 1031.0 ± 97.25 % IA/g·h
  AUC0h→72h in blood: 104.5 ± 7.98 % IA/g·h
  AUC0h→72h in kidney: 1087.0 ± 62.73 % IA/g·h
  AUC0h→72h in liver: 915.6 ± 74.74 % IA/g·h
